Measured values as given in patent publication EP4480961A1 (Consejo Superior De Investigaciones Científicas, dated 2024).
Where a chain is given by its changes, count along the chain named.

What was measured:
[1] = biological target: T1, Y. ruckeri OmpF embedded in the outer membrane of E. coli MDS42 ΔompF cells (Yersinia ruckeri); experiment: flow cytometry on E. coli expressing Y. ruckeri OmpF, chimera at 0.1 µM and 1 µM, PBS
T1 construct: whole, on cells; Cells were fixed with PFA for flow cytometry; also called OmpF Y. ruckeri expressing strain; specific target

[2] = biological target: T2, soluble recombinant OmpF (outer membrane porin F) from Yersinia ruckeri (Yersinia ruckeri); experiment: BLI, biotinylated chimera on streptavidin tips, soluble rOmpF 0.5-2.3 µM, PBS pH 7.4
T2 construct: also called rOmpF; Y. ruckeri OmpF

[3] = biological target: T3, ovalbumin (UniProt P01012 2-386); experiment: cross-reactivity test, yeast display flow cytometry
T3 construct: also called ovoalbumin
T3 sequence (looked up): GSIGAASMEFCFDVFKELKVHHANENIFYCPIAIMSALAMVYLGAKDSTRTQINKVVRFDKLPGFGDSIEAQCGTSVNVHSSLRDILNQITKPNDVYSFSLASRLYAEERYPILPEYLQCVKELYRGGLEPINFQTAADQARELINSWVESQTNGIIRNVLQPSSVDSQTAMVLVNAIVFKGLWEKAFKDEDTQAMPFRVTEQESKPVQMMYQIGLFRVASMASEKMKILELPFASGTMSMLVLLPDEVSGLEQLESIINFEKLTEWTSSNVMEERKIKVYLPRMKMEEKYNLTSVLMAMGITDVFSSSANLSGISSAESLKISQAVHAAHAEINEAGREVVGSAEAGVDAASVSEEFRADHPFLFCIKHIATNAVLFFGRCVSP

[4] = biological target: T4, human seroalbumin (human, UniProt P02768 25-609); experiment: as above
T4 construct: also called hSA

[5] = biological target: T1, Y. ruckeri OmpF embedded in the outer …; experiment: flow cytometry titration in fresh water
[6] = biological target: T5, wild-type E. coli OmpF embedded in the membrane of E. coli MDS42 cells (Escherichia coli, UniProt P02931 23-362); experiment: flow cytometry titration in fresh water
T5 construct: whole, on cells
T5 sequence: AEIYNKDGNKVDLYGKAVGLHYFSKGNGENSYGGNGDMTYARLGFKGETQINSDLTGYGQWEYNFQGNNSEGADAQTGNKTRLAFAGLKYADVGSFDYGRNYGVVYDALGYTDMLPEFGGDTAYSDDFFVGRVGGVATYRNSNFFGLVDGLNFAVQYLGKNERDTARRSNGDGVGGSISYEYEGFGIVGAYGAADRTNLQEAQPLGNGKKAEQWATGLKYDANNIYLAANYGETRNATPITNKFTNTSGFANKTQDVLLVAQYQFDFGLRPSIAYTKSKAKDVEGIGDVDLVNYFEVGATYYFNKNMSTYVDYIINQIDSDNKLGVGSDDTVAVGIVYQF

[7] = biological target: T5, wild-type E. coli OmpF embedded in the …; experiment: flow cytometry titration in PBS, 5 concentrations 0.001-3 µM, […]
[8] = biological target: T1, Y. ruckeri OmpF embedded in the outer …; experiment: flow cytometry titration in PBS, 5 concentrations 0.001-3 µM, normalised

T4 sequence (P02768 25-609): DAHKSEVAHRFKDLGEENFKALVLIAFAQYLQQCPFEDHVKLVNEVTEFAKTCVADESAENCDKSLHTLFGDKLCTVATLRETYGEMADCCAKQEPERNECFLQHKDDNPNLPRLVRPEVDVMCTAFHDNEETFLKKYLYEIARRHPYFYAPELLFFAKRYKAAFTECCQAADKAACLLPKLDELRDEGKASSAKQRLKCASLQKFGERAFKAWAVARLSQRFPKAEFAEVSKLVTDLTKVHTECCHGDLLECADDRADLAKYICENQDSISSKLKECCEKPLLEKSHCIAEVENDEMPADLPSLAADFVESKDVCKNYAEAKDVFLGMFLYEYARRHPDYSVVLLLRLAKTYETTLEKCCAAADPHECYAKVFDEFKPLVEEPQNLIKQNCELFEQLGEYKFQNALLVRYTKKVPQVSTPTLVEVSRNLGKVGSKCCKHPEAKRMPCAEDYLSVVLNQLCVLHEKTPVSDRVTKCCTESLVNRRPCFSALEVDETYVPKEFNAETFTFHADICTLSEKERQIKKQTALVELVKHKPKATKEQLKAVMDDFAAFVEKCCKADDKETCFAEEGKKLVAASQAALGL

B1: DBP1-L1 chimeric protein (designed binder)
chain: MADLPQKVSNLSINNKENGGGGGKSSYVPPHLRSRGKPSFERRSPKQKDKVTGGDFFRRAGRQTGNNGGFFGFSKERNGGTSANYNRRGSSNYKSSGNRWVNGKHIPGPKNAKLQKAELFGVHDDPDYHSSGIKFDNYDNIPVDASGKDVPEPILGGRTRGGGGFFNSRNNGSRDYRKHGGNGSFGSTRPRNTGTSNWGSIGGGFRNDNEKNGYGNSNASWWGSATVKFTYQGEEKQVDISKIKMVIRMGQMILFTYDEGGGAMGRGIVSEKDAPKELLQMLEKQ
notes: Biotinylated and immobilised on streptavidin tips for BLI; biotinylated for microscopy and flow cytometry
For B1, the “percentage of double positives” value [1] was greater than 75% and the Kd [2] was 119 nM.

B2: DBP1-L2 chimeric protein (designed binder)
chain: B1 chain with M245Y, M249F, M252K, L254M, T256K, M264H, R266S, I268M
notes: Biotinylated and immobilised on streptavidin tips for BLI
B2 was tested, and the “percentage of double positives” value [1] was greater than 75% and the Kd [2] was 26 nM.

B3: L2 engineered rcSso7d binder (designed binder)
chain: ATVKFTYQGEEKQVDISKIKYVIRFGQKIMFKYDEGGGAHGSGMVSEKDAPKELLQMLEKQ
notes: also called clone L2
B3: no binding (tested: 1 µM) [3]; no binding (tested: 1 µM) [4].

B4: mHP1α-L1 chimeric protein (designed binder)
chain: MGKKTKRTADSSSSEDEEEYVVEKVLDRRMVKGQVEYLLKWKGFSEEHNTWEPEKNLDCPELISEFMKKYKKMKEGENNKPREKSEGNKRKSSFSNSADDIKSKKKREQSNDIARGFERGLEPEKIIGATDSCGDLMFLMKWKDTDEADLVLAKEANVKCPQIVIAFYEERLTWHAYPEDAENKEKESAKSGSATVKFTYQGEEKQVDISKIKMVIRMGQMILFTYDEGGGAMGRGIVSEKDAPKELLQMLEKQ
notes: also called mHP1-L1
Binder B4 has a Kd [5] of 140 nM and a Kd [6] of 130 nM.

B5: mHP1α-R2 chimeric protein (designed binder)
chain: B4 chain with I216M, M218N, M221R, L223R, T225M, M233I, R235L, I237E
notes: also called mHP1-R2
With B5 the Kd [5] was 300 nM, the Kd [6] was 280 nM and the Kd [7] was 82 nM. For the same binder, the Kd [8] was 75 nM.

B6: mHP1α-L2 chimeric protein (designed binder)
chain: B4 chain with M214Y, M218F, M221K, L223M, T225K, M233H, R235S, I237M
notes: Biotinylated for flow cytometry
For B6, the “percentage of double positives” value [1] was greater than 75%.

B7: L1 engineered rcSso7d binder (designed binder)
chain: ATVKFTYQGEEKQVDISKIKMVIRMGQMILFTYDEGGGAMGRGIVSEKDAPKELLQMLEKQ
notes: also called clone L1
B7: no binding (tested: 1 µM) [4].
